Laboratory results reported in patent publication US20240309103A1 (Regeneron, published 2024).

B1: mAb25491 (antibody, V domains shown)
VH: QVQLVQSGAEVMKPGASVKVSCKASGYTFTGYYIHWVRQAPGQGLEWMGWITPNSGATNYAQKFQGRVTLTRDTSISTAYMELTRLKSDDTAVYYCARGGQLEFFYYYYGMDVWGQGTTVTVSS
VL: DIQMTQSPSSLSASAGDRVTITCRASQSIDSYLNWYQQKPGKAPKLLISATSGFQSGVPSRFSGSGSGTDFTLTISSLQPEDFGTYYCQQSYTTPITFGQGTRLEIK
B2: mAb25479 (antibody, V domains shown)
VH: QVQLVQSGAEVKKPGASVKVSCKASGYTFTGYYIHWVRQAPGQGLEWMGWINPNSIGTNYAQKFQGRVTLTRDTSISTAYMELSSLRSDDTAVYYCARGGSSSYYYYYYGMDVWGQGTTVTVSS
VL: DIQMTQSPSSLSASVGDRVTITCRASQSIDNYLNWYQQKPGKAPKLLIYVASSLQSGVPSRFSGSGSGTDFTLTISSLQPEDFATYYCQQSYSTPLTFGGGTKVEIK
B3: mAb25545 (antibody, V domains shown)
VH: QVQLVESGGGLVKPGGSLRLSCAASGFTFSDYHLSWIRQAPGKGLEWVSYIRSSGRTIDYAASVKGRFTISRDNAKNSLYLQMNSLRVEDTAVYYCARENWIVLKVYAGIVGAPLDQWGQGTLVTVSS
VL: not shown

What was measured:
[1] = target: T1, mouse NPR1 extracellular domain expressed with a C-terminal mouse IgG2a (mNPR1-mFc) (mouse); assay: SPR, Tables 21 to 26
T1 chain: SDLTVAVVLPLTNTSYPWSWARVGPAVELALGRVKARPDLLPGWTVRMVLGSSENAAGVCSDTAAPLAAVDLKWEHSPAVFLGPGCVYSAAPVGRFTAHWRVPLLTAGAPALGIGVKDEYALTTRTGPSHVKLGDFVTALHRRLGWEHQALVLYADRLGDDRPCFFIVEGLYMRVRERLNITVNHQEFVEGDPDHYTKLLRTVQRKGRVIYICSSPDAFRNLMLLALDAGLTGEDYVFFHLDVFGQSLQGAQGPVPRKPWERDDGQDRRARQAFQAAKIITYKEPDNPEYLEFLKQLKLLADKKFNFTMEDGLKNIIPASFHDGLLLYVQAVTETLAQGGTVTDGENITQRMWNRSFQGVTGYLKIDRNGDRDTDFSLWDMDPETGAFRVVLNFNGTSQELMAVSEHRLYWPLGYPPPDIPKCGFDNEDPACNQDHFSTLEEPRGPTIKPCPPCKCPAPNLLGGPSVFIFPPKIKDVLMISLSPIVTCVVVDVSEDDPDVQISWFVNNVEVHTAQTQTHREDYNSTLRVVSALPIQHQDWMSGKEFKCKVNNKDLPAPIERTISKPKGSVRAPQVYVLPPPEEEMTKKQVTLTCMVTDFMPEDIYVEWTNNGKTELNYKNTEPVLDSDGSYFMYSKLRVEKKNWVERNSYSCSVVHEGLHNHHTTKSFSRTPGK
Protocol: (§1) Equilibrium dissociation constant (KD) for different NPR1 reagents binding to purified anti-NPR1 monoclonal antibodies (mAbs) were determined using a real-time surface plasmon resonance based Biacore 4000 biosensor. All binding studies were performed in 10 mM HEPES, 150 mM NaCl, 3 mM EDTA, and 0.05% v/v Surfactant Tween-20, pH 7.4 (HBS-ET) running buffer at 25° C. and 37° C. The Biacore CM5 sensor chip surface was first derivatized by amine coupling with either mouse anti-human Fc specific mAb (GE Healthcare, #BR100839) or goat anti-human Fcy specific polyclonal antibody (Jackson ImmunoResearch Laboratories, #BR-1008-39) to capture anti-NPR1 mAbs.

[2] = target: T2, human NPR1 extracellular domain expressed with a C-terminal myc-myc-hexahistidine (hNPR1-MMH) (human, UniProt P16066 33-473); assay: SPR, mAb captured, 25 C
T2 construct: also called hNPR.mmh; monomeric human NPR1
T2 sequence (P16066 other isoform, or with tags, fused parts or gaps): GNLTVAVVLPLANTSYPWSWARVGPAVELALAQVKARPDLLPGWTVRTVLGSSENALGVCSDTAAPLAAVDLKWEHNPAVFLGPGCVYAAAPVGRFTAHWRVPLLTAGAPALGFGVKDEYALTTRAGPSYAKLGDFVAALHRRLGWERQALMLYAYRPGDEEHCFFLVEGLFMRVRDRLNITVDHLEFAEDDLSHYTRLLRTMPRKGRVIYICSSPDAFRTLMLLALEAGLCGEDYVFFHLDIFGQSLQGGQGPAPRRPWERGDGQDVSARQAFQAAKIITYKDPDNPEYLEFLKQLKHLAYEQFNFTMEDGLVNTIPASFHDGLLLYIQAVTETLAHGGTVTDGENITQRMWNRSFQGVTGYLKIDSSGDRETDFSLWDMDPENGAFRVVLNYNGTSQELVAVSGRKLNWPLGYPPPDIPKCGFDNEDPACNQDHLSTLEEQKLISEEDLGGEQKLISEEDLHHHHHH
Protocol: as §1

[3] = target: T3, monkey NPR1 extracellular domain expressed with a C-terminal myc-myc-hexahistidine (mfNPR1-MMH) (monkey, UniProt P16066 33-473 (human entry)); assay: SPR, mAb captured, 25 C
T3 construct: also called monomeric monkey NPR1
T3 chain: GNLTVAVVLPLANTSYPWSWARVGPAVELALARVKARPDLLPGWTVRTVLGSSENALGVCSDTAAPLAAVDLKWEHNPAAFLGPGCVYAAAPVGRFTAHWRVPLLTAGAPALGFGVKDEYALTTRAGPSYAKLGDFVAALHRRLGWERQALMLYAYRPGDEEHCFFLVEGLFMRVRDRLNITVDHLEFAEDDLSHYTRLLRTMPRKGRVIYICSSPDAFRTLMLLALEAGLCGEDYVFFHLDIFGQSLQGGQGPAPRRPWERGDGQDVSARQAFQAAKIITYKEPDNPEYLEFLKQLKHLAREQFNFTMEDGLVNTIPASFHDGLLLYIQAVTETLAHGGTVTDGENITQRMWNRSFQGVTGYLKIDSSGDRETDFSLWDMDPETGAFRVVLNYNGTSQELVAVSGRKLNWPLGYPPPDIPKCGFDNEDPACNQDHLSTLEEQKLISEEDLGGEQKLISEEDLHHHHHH
Protocol: as §1

[4] = target: T4, mouse NPR1 extracellular domain expressed with a C-terminal myc-myc-hexahistidine (mNPR1-MMH) (mouse, UniProt P18293 29-469); assay: SPR, mAb captured, 25 C
Protocol: as §1

[5] = target: T5, human NPR1 extracellular domain expressed with a C-terminal mouse IgG2a (hNPR1-mFc) (human); assay: SPR, mAb captured, 25 C
T5 construct: also called hNPR1-Fc; human NPR1 dimer
T5 chain: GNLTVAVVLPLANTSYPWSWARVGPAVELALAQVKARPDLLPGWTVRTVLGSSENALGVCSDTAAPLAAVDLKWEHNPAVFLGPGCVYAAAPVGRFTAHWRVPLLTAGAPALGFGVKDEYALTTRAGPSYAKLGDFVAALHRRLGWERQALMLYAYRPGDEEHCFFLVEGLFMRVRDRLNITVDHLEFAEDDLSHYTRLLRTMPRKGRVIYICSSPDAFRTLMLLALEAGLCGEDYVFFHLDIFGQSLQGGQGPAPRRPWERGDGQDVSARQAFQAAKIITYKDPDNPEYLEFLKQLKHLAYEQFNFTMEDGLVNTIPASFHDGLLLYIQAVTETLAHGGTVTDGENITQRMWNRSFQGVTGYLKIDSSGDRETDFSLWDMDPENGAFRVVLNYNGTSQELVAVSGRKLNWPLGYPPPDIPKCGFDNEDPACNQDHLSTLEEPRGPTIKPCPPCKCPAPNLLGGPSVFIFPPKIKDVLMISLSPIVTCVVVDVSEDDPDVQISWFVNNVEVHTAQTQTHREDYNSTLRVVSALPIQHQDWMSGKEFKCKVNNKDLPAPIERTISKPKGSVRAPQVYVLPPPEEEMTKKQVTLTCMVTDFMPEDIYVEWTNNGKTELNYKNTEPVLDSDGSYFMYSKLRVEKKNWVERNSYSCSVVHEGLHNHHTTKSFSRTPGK
Protocol: as §1

[6] = target: T2, human NPR1 extracellular domain …; assay: SPR, mAb captured, 37 C
Protocol: as §1

[7] = target: T3, monkey NPR1 extracellular domain …; assay: SPR, mAb captured, 37 C
Protocol: as §1

[8] = target: T4, mouse NPR1 extracellular domain …; assay: SPR, mAb captured, 37 C
Protocol: as §1

[9] = target: T5, human NPR1 extracellular domain …; assay: SPR, mAb captured, 37 C
Protocol: as §1

| Binder | binding result [1] | 100 nM Ag Bound (RU) [2] [RU] | Kd [2] [nM] | koff [2] [s⁻¹] | kon [2] [M⁻¹ s⁻¹] | t½ [2] [min] | 100 nM Ag Bound (RU) [3] [RU] | Kd [3] [nM] | koff [3] [s⁻¹] | kon [3] [M⁻¹ s⁻¹] | t½ [3] [min] | 100 nM Ag Bound (RU) [4] [RU] | binding result [4] | 100 nM Ag Bound (RU) [5] [RU] | Kd [5] [nM] | koff [5] [s⁻¹] | kon [5] [M⁻¹ s⁻¹] | 100 nM Ag Bound (RU) [7] [RU] | 100 nM Ag Bound (RU) [8] [RU] | 100 nM Ag Bound (RU) [9] [RU] | further results |
| --- | --- | --- | --- | --- | --- | --- | --- | --- | --- | --- | --- | --- | --- | --- | --- | --- | --- | --- | --- | --- | --- |
| B1 | no binding | 37 | 37.6 | 0.000983 | 26200 | 11.7 | 81 | 30.5 | 0.00128 | 42000 | 9 | 0 | no binding (tested: 100 nM) | 36 | 1.24 | 0.000124 | 101000 | 106 | 0 | 70 | t½ [5]: 92.8 min; 100 nM Ag Bound (RU) [6]: 51 RU; Kd [6]: 127 nM; koff [6]: 0.00453 s⁻¹; kon [6]: 35600 M⁻¹ s⁻¹; t½ [6]: 2.5 min; Kd [7]: 78.4 nM; koff [7]: 0.00457 s⁻¹; kon [7]: 58300 M⁻¹ s⁻¹; t½ [7]: 2.5 min; Kd [9]: 8.66 nM; koff [9]: 0.000363 s⁻¹; kon [9]: 41900 M⁻¹ s⁻¹; t½ [9]: 31.8 min |
| B2 | no binding | 16 | 482 | 0.00673 | 14000 | 1.7 | 41 | 246 | 0.00682 | 27700 | 1.7 | 0 | no binding (tested: 100 nM) | 26 | 22.4 | 0.000852 | 38000 | 43 | 1 | 47 | t½ [5]: 13.6 min; 100 nM Ag Bound (RU) [6]: 16 RU; Kd [6]: 689 nM; koff [6]: 0.0157 s⁻¹; kon [6]: 22800 M⁻¹ s⁻¹; t½ [6]: 0.7 min; Kd [7]: 360 nM; koff [7]: 0.0142 s⁻¹; kon [7]: 39600 M⁻¹ s⁻¹; t½ [7]: 0.8 min; Kd [9]: 41.2 nM; koff [9]: 0.00139 s⁻¹; kon [9]: 33700 M⁻¹ s⁻¹; t½ [9]: 8.3 min |
| B3 | no binding | – | – | – | – | – | 4 | – | – | – | – | 0 | no binding (tested: 100 nM) | 7 | – | – | – | 10 | 1 | 15 | – |
